{"source": "patent US20250197476A1", "key": {"[1]": {"target": "Fc gamma receptors of human macrophages", "test": "cytofluorometry, human macrophages with 5 µg/ml hybrid for 20 h at 37 °C, anti-Fc-FITC"}, "[2]": {"target": "Fc gamma receptors of human macrophages", "test": "cytofluorometry, human macrophages with 5 µg/ml hybrid for 2 h at 37 °C, anti-Fc-FITC"}, "[3]": {"target": "Fc gamma receptors of NK cells", "test": "cytofluorometry, NK cells, 10 µg/ml, 30 min at 37 °C"}, "[4]": {"target": "Fc gamma receptors of NK cells", "test": "cytofluorometry, NK cells, 10 µg/ml, no competing IgG (same values as Table 9)"}, "[5]": {"target": "Fc gamma receptors of NK cells", "test": "cytofluorometry, NK cells, 30 min at 37 °C"}, "[6]": {"target": "Fc gamma receptors of NK cells", "test": "cytofluorometry, NK cells, 24 h at 37 °C"}, "[7]": {"target": "Fc gamma receptors of NK cells", "test": "cytofluorometry, NK cells, 48 h at 37 °C"}, "[8]": {"target": "Fc gamma receptors of NK cells", "test": "competition, cytofluorometry on NK cells; human IgG at 10000 µg/ml against FcSDHFSTIE-N3-DBCO-A647 at 10 µg/ml"}, "[9]": {"target": "Fc gamma receptors of NK cells", "test": "competition, cytofluorometry on NK cells; human IgG at 1000 µg/ml against FcSDHFSTIE-N3-DBCO-A647 at 10 µg/ml"}, "[10]": {"target": "Fc gamma receptors of NK cells", "test": "competition, cytofluorometry on NK cells; human IgG at 100 µg/ml against FcSDHFSTIE-N3-DBCO-A647 at 10 µg/ml"}, "[11]": {"target": "Fc gamma receptors of NK cells", "test": "competition, cytofluorometry on NK cells; human IgG at 10 µg/ml against FcSDHFSTIE-N3-DBCO-A647 at 10 µg/ml"}, "[12]": {"target": "Fc gamma receptors of NK cells", "test": "competition, cytofluorometry on NK cells; human IgG at 1 µg/ml against FcSDHFSTIE-N3-DBCO-A647 at 10 µg/ml"}}}
{"substance": "FcWT-N3-DBCO-β60-74Cit (from UniProt P01857 104-330)", "values": [{"measurement": "fluorescence (Macrophages)", "setting": "[1]", "value": 1000}, {"measurement": "fluorescence (Macrophages)", "setting": "[2]", "value": 808}]}
{"substance": "FcLALAPG-N3-DBCO-A647 (from UniProt P01857 104-330)", "values": [{"measurement": "MFI", "setting": "[3]", "value": 450}]}
{"substance": "FcSDHFSTIE-N3-DBCO-A647 (from UniProt P01857 104-330)", "values": [{"measurement": "MFI", "setting": "[3]", "value": 38500}, {"measurement": "MFI", "setting": "[4]", "value": 38500}]}
{"substance": "FcSDHFSTIE-N3-DBCO-A488 (from UniProt P01857 104-330)", "values": [{"measurement": "MFI", "setting": "[5]", "value": 2970}, {"measurement": "MFI", "setting": "[6]", "value": 2350}, {"measurement": "MFI", "setting": "[7]", "value": 1710}]}
{"substance": "human IgG (antibody)", "values": [{"measurement": "MFI of FcSDHFSTIE-N3-DBCO-A647 with competing IgG", "setting": "[8]", "value": 20500}, {"measurement": "RATIO of FcSDHFSTIE-N3-DBCO-A647 with competing IgG", "setting": "[8]", "value": 96.6}, {"measurement": "MFI of FcSDHFSTIE-N3-DBCO-A647 with competing IgG", "setting": "[9]", "value": 29500}, {"measurement": "RATIO of FcSDHFSTIE-N3-DBCO-A647 with competing IgG", "setting": "[9]", "value": 139}, {"measurement": "MFI of FcSDHFSTIE-N3-DBCO-A647 with competing IgG", "setting": "[10]", "value": 36300}, {"measurement": "RATIO of FcSDHFSTIE-N3-DBCO-A647 with competing IgG", "setting": "[10]", "value": 171}, {"measurement": "MFI of FcSDHFSTIE-N3-DBCO-A647 with competing IgG", "setting": "[11]", "value": 38800}, {"measurement": "RATIO of FcSDHFSTIE-N3-DBCO-A647 with competing IgG", "setting": "[11]", "value": 183}, {"measurement": "MFI of FcSDHFSTIE-N3-DBCO-A647 with competing IgG", "setting": "[12]", "value": 37900}, {"measurement": "RATIO of FcSDHFSTIE-N3-DBCO-A647 with competing IgG", "setting": "[12]", "value": 179}]}
{"substance": "FcSDHFSTIE-N3-DBCO-PEG3-β60-74cit-lysineA488 (from UniProt P01857 104-330)", "values": [{"measurement": "MFI", "setting": "[5]", "value": 4590}, {"measurement": "MFI", "setting": "[6]", "value": 4090}, {"measurement": "MFI", "setting": "[7]", "value": 4340}]}
{"substance": "FcSDHFSTIE-N3-DBCO-β60-74Cit (from UniProt P01857 104-330)", "values": [{"measurement": "fluorescence (Macrophages)", "setting": "[1]", "value": 1460}, {"measurement": "fluorescence (Macrophages)", "setting": "[2]", "value": 1330}]}
{"substance": "FcLALAPG-N3-DBCO-β60-74Cit (from UniProt P01857 104-330)", "values": [{"measurement": "fluorescence (Macrophages)", "setting": "[1]", "value": 404}, {"measurement": "fluorescence (Macrophages)", "setting": "[2]", "value": 502}]}
